From US20220396633A1 (MABPRO A S, published 2022)
Residue numbers refer to the chain shown, from its start.

B1: CA9hu-2_HC1LC5 (antibody, V domains shown)
VH: EVQLVESGGGLVQPGGSLKLSCAASGFTFNTNAMHWVRQASGKGLEWVGRIRSKSNNYTTYYADSVKDRFTISRDDSKNTAYLQMNSLKTEDTAVYYCVCGSWFAYWGQGTLVTVSS
VL: DIVMTQSPDSLAVSLGERATINCKSSQSLLNSSNQKNYLAWYQQKPGQPPKLLIYFTSTRQSGVPDRFSGSGSGTDFTLTISSLQAEDVAVYYCQQHYSIPLTFGQGTKLEIK
notes: Humanized variant of IV/18; VH in-frame with human IgG constant domain (allotype G1m17,1), VL in-frame with human kappa constant domain (allotype Km3)
B2: CA9hu-2_HC3LC3 (antibody, V domains shown)
VH: QVQLVESGGGVVQPGGSLRLSCAASGFTFNTNAMHWVRQAPGRGLEWVARIRSKSNNYTTYYADSVKDRFTISRDNSKNTLYLQVNSLRAEDTAVYYCVCGSWFAYWGQGTLVTVSS
VL: B1 VL with V3Q, Y93F, L110V
notes: as for B1
B3: CA9hu-2_HC3LC2 (antibody, V domains shown)
VH: B2 VH
VL: B1 VL with Y42F, K51N, L53V, S82N, Y93F, K109Q, L110V
notes: as for B1
B4: CA9hu-2_HC3LC1 (antibody, V domains shown)
VH: B2 VH
VL: B1 VL with I2V, A19V, P49S
notes: as for B1
B5: CA9hu-2_HC4LC2 (antibody, V domains shown)
VH: B2 VH with Q1E, G16R, R43K, V85M
VL: B1 VL with Y42F, K51N, L53V, S82N, Y93F, K109Q, L110V
notes: as for B1
B6: CA9hu-2_HC3LC4 (antibody, V domains shown)
VH: B2 VH
VL: B1 VL with Y42F, L52V, S69T
notes: as for B1
B7: CA9hu-2_HC1LC2 (antibody, V domains shown)
VH: B1 VH
VL: B1 VL with Y42F, K51N, L53V, S82N, Y93F, K109Q, L110V
notes: as for B1
B8: CA9hu-2_HC2LC1 (antibody, V domains shown)
VH: B1 VH with N79S
VL: B1 VL with I2V, A19V, P49S
notes: as for B1
B9: CA9hu-2_HC4LC1 (antibody, V domains shown)
VH: B2 VH with Q1E, G16R, R43K, V85M
VL: B1 VL with I2V, A19V, P49S
notes: as for B1
B10: CA9hu-2_HC5LC3 (antibody, V domains shown)
VH: B1 VH with L112T
VL: B1 VL with V3Q, Y93F, L110V
notes: as for B1
B11: CA9hu-2_HC4LC3 (antibody, V domains shown)
VH: B2 VH with Q1E, G16R, R43K, V85M
VL: B1 VL with V3Q, Y93F, L110V
notes: as for B1
B12: CA9hu-2_HC2LC5 (antibody, V domains shown)
VH: B1 VH with N79S
VL: B1 VL
notes: as for B1
B13: CA9hu-2_HC2LC3 (antibody, V domains shown)
VH: B1 VH with N79S
VL: B1 VL with V3Q, Y93F, L110V
notes: as for B1
B14: CA9hu-2_HC3LC5 (antibody, V domains shown)
VH: B2 VH
VL: B1 VL
notes: as for B1
B15: CA9hu-2_HC1LC4 (antibody, V domains shown)
VH: B1 VH
VL: B1 VL with Y42F, L52V, S69T
notes: as for B1
B16: CA9hu-2_HC5LC5 (antibody, V domains shown)
VH: B1 VH with L112T
VL: B1 VL
notes: as for B1
B17: CA9hu-2_HC1LC1 (antibody, V domains shown)
VH: B1 VH
VL: B1 VL with I2V, A19V, P49S
notes: as for B1
B18: CA9hu-2_HC2LC4 (antibody, V domains shown)
VH: B1 VH with N79S
VL: B1 VL with Y42F, L52V, S69T
notes: as for B1
B19: CA9hu-2_HC5LC2 (antibody, V domains shown)
VH: B1 VH with L112T
VL: B1 VL with Y42F, K51N, L53V, S82N, Y93F, K109Q, L110V
notes: as for B1
B20: CA9hu-2_HC1LC3 (antibody, V domains shown)
VH: B1 VH
VL: B1 VL with V3Q, Y93F, L110V
notes: as for B1
B21: CA9hu-2_HC5LC4 (antibody, V domains shown)
VH: B1 VH with L112T
VL: B1 VL with Y42F, L52V, S69T
notes: as for B1
B22: CA9hu-2_HC5LC1 (antibody, V domains shown)
VH: B1 VH with L112T
VL: B1 VL with I2V, A19V, P49S
notes: as for B1
B23: CA9hu-2_HC4LC4 (antibody, V domains shown)
VH: B2 VH with Q1E, G16R, R43K, V85M
VL: B1 VL with Y42F, L52V, S69T
notes: as for B1
B24: CA9hu-2_HC2LC2 (antibody, V domains shown)
VH: B1 VH with N79S
VL: B1 VL with Y42F, K51N, L53V, S82N, Y93F, K109Q, L110V
notes: as for B1

What follows are binders tested against CA IX-positive antigen (protein extract of C-33a_CA IX cells) (human, UniProt Q16790 38-459) (assay: ELISA, antibody 5 ug/ml on coated protein extract of C-33a_CA IX cells versus C-33a_neo).
Experimental: To evaluate the antigen-binding specificity, all twenty-five humanized variants of CA9hu-2 were subjected to enzyme-linked immunosorbent assay (ELISA) using either CA IX-positive or CA IX-negative antigen. Antigens were prepared from stably transfected C-33a cell line expressing CA IX (C-33a_CA IX) and parental mock-transfected C-33a cells without CA IX expression (C-33a_neo).
Proteins were extracted from the cell monolayer with RIPA lysis buffer (0.1% deoxycholate, 1% Triton X-100 and protease inhibitor cocktail in PBS). Protein concentrations were determined by bicinchoninic acid assay (ThermoFisher Scientific, Waltham, Mass. USA) according to the manufacturer's instructions. Protein extracts were diluted to final concentration 0.2 mg/ml in PBS. Protein concentration of antigen samples used in screening of antigen-antibody specific interaction tested by ELISA meets the requirements for low detergent content that could otherwise interfere throughout the analysis. 50 μl of either CA IX-positive or CA IX-negative antigen was coated on the surface of microplate wells overnight at 37° C. After washing with PBS-T 0.05% Tween-20 in PBS pH7.2, 50 μl of all humanized variants of CA9hu-2 (diluted to concentration 5 μg/ml in 10% FCS in PBS-T) were added and incubated for 2 h at room temperature. Peroxidase-labeled swine anti-human IgG (diluted 1:5000 in 10% FCS in PBS-T; Sigma-Aldrich, St. Louis, Mo. USA) was used as detector. Parental IV/18 antibody (marked as “mouse Ab”) as well as chimeric HC0LC0 antibody (having the murine variable domains and the human Ig constant domains) were used as reference samples. Results are expressed as a fold of induction and are calculated as O.D. values of absorbance measured at 492 nm from CA IX-positive antigen/O.D. values of absorbance measured at 492 nm from CA IX-negative antigen.

binding result | Binder
binds | B1
binds | B2
binds | B3
binds | B4
binds | B5
binds | B6
binds | B7
binds | B8
binds | B9
binds | B10
binds | B11
binds | B12
binds | B13
binds | B14
binds | B15
binds | B16
binds | B17
binds | B18
binds | B19
binds | B20
binds | B21
binds | B22
binds | B23
binds | B24
